Source: the supplement of paper PMC9170038

Columns and labels:
MS2 coat protein [1] = assay: apparent KD of MS2 coat protein; designed switch direction (-1 OFF switch, 1 ON switch): 1; higher = weaker reporter binding
How it was run: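 Apparent KD, taken as the median over clusters for each design, was obtained by curve-fitting normalised cluster fluorescence. Designed RNA switches had been transcribed on Illumina chips by stalled E. coli RNA polymerase and titrated with SNAP-549-labelled MS2 coat protein, doubling from 0.7 or 1.5 nM to 3 µM.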

MS2 coat protein [2] = assay: apparent KD of MS2 coat protein; higher = weaker reporter binding; conditions: Eterna round: R107
How it was run: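 Illumina sequencing clusters were used for on-chip transcription of designed RNA switches. Titration with SNAP-549-labelled MS2 coat protein followed, in twofold steps from 0.7 or 1.5 nM to 3 µM in 100 mM Tris-HCl pH 7.5, 80 mM KCl, 4 mM MgCl2, without or with constant ligand. Apparent KD is each design's median of fits to normalised cluster binding curves.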

[3] = input ligand: microRNA oligo, concentration not stated
[4] = input ligand: theophylline 20 uM
[5] = input ligand: theophylline 2 mM
[6] = input ligand: tryptophan 2.4 mM

| Sequence | apparent KD of MS2 coat protein (MS2 coat protein [1]; [3]) [nM] | apparent KD of MS2 coat protein (MS2 coat protein [1]; input ligand: FMN 200 uM) [nM] | apparent KD of MS2 coat protein (MS2 coat protein [1]; input ligand: none) [nM] | apparent KD of MS2 coat protein (MS2 coat protein [2]; input ligand: arginine 13.2 mM) [nM] | apparent KD of MS2 coat protein (MS2 coat protein [2]; input ligand: none) [nM] | apparent KD of MS2 coat protein (MS2 coat protein [2]; [4]) [nM] | apparent KD of MS2 coat protein (MS2 coat protein [2]; [5]) [nM] | apparent KD of MS2 coat protein (MS2 coat protein [2]; [6]) [nM] |
| --- | --- | --- | --- | --- | --- | --- | --- | --- |
| AAAAAACAUGAGGAUCACCCAUGUAAAAAAAACACAGGAUAUCCCUUUUUUAAAAAAAAAGGAGAAGGGUGAAAAA [Nob's Hobby 7 - Jieux - Same State 1] (Eterna round: R96, puzzle: Same State 1) | 36.4 | – | – | – | – | – | – | – |
| AAACACAUGAGGAUCACCCAUGUAGCGCCAUUGAGGCGCACAUAGGAUAUCCGGUCCAAAAGACCGGAGAAGGGUGAAAGAAAA [Soesen] (Eterna round: R96, puzzle: Same State NG 3) | 166 | 125 | 146 | – | – | – | – | – |
| AAACGGGCUACAGGAUAUGCUCGAUAAACUUCAGUAGAAGGGUGGCCUUAUCAACGAACAUGAGGAUCACCCAUGUUCUACAAC [Dianrisole] (Eterna round: R96, puzzle: Same State NG 1) | 28.3 | 77.2 | 136 | – | – | – | – | – |
| AAACUCGUUGAAGGAUAUCCGGCAGCUAACAAACCGUAACAUGAGGAUCACCCAUGUGUUAGAAAGGAGAAGGUCAGUGACCGG [Eternabot solution 34] (Eterna round: R96, puzzle: Same State NG 2) | 15.9 | 17.2 | 22.3 | – | – | – | – | – |
| AAAGAAAACGCAGGAUAUACCCGGGAAACCGAGGUAGAAGGGUGAACCAAAACAAAACUAAAUAACAUGAGGAUCACCCAUGUC [Biarzara] (Eterna round: R96, puzzle: Same State NG 1) | 12.7 | 162 | 132 | – | – | – | – | – |
| AAAGGAUGAUUAUACAUGAGGAUCACCCAUGUUUGUAAUACUAAGGAUAUGUGACUUAAUUGUGAACAGAAGGUAGGUUCAUGA [AK SSNG3-V2-1] (Eterna round: R96, puzzle: Same State NG 3) | 43.6 | 56.8 | 62.2 | – | – | – | – | – |
| UGGGUACAUGAGGAUCACCCAUGUACUGAAGGAGCGAGAAAUAACUCAGGUAGGUCGCAGACAUGAGGAUCACCCAUGUAAUAAA [Exclusion Arginine A GF 10] | – | – | – | 16 | 18 | 23.4 | 22.5 | 18 |
| UGGUAGGUAGGAAGGAGCGCAUACUUCACAUGAGGAUCACCCAUGUCGAGACGUGAGUCAGUGCAGGUAGGUCGCCUAGUUAUGA [Same State - Arginine B (Freestyle 23)] | – | – | – | 30.4 | 36.4 | 36.1 | 37.6 | 30.3 |
| UGUAACAUGAGGAUCACCCAUGUGAGUGAUACCAGAUUAGUAUUAGUCCCUUGGCAGCACAUUGGGCGAGUGUAUAGUCUAUGCG [Same State - Theophylline A (Freestyle 12)] | – | – | – | 106 | – | 197 | – | 135 |
| UGUAUAUACGGAAGGAGCGUGUAAGAUUAAGAACAUGAGGAUCACCCAUGUUUUAAGGGAACACAGGUAGGUCGCCGUAUAUAUG [11.O] | – | – | – | 9.29 | 12.4 | 14.1 | 11.7 | 10.3 |
| UGUAUGGACUGAAGGAGCGCCUCAAAACAUGAGGAUCACCCAUGUGGACAAUAAGUCCUUGGGCAGGUAGGUCGCAGUCCAUACU [ArgBX 6 #StaticStem #MS2Late] | – | – | – | 81.4 | 50 | 84.6 | 85.3 | 60.9 |
| UGUAUGGACUGAAGGAGCGGAUGAUAACCUGAGGAUCACCCGGGUAAUAAGGCGAAAGCCAUCCAGGUAGGUCGCAGUCCAUACU | – | – | – | 53.2 | 101 | 111 | 126 | 82.9 |
| UGUAUGGACUGAAGGAGCGGGUAAUAAACCUGAGGAUCACCCAGGUAAUAGGCGAAAGCCGCCCAGGUAGGUCGCAGUCCAUACU | – | – | – | 13.2 | 13.5 | 13.7 | 11.7 | 12.5 |
| UGUAUGGACUGAAGGAGCGGGUUGAUAACUUGAGGAUCACCCAGGUAAAAGGCGAAAGCCGCCCAGGUAGGUCGCAGUCCAUACU | – | – | – | 40.2 | 45.6 | 54.9 | 61.7 | 49.2 |
| UGUAUGUGAUCUGAUACCAGAGUGAAUAAACGCGAAAGCGCCUGAGGAUCACCCUGGUAACUCCCUUGGCAGCAGAUCGCAUACU | – | – | – | 119 | 569 | 789 | 74.5 | 1390 |
| UGUAUGUGAUCUGAUACCAGCGAUGAUAACCUGAGGAUCACCCUGGUAAGGCGAAAGCCUCGCCCUUGGCAGCAGAUCGCAUACU | – | – | – | 407 | 583 | 273 | 24 | 800 |
| UGUAUGUGAUCUGAUACCAGCUUUGAUAACCUGAGGAUCACCCUGGUAAAGGCGAAAGCCGGCCCUUGGCAGCAGAUCGCAUACU | – | – | – | 47.3 | 58.5 | 56.1 | 24.6 | 59.7 |
| UGUAUGUGAUCUGAUACCAGUCCAACUGGUAAAAUAUGAGGAUCACCCAUAUAAAAUUGGGACCCUUGGCAGCAGAUCGCAUACU | – | – | – | 108 | 265 | 632 | 129 | 492 |
| UGUAUGUGAUCUGAUACCAGUGACACGAAAGUGAAUCGCUUGAGGAUCACCCAAGUAAAACACCCUUGGCAGCAGAUCGCAUACU [Full moving switch bubble 1] | – | – | – | 20.3 | 15.6 | 23.5 | 25 | 15.6 |
| UUAAUGGAGCUUUUAUUUACGAUUUCUGAUACCAGUGUUUCAUUUCACCCUUGGCAGCAGUGACAUGAGGAUCACCCAUGUAAUA [JR_Nu_SSTheophyA_Sub021] | – | – | – | 30.3 | – | 33.8 | – | 25.9 |
| UUACAACUAAUGGAUACCAGCCGCGUGCUAGUGGUAGCAUACAUGAGGAUCACCCAUGUCGGCCCUUGGCAGCCACGCCCAUGCU [theeternabot_exclusion_MS2_Theo_B_2] | – | – | – | 13.7 | – | 21.7 | – | 14.2 |
| UUAUAUUAUCGAAGGAGCGUCACAUGAGGAUCACCCAUGUACAUGAGGAUCACCCAUGUGUGGCAGGUAGGUCGCGAUAUAUAAC [Exclusion Arginine B GF9] | – | – | – | 120 | – | 250 | 301 | 327 |
| UUAUGCAGGUCGGCCGCCACUACACACAUGAGGAUCACCCAUGUAGUUACUGGGUGAAGUGGCAGUAGGACCGGGACCUGCAUAU [Brourdmod05] | – | – | – | 84.5 | – | 449 | 832 | – |
| UUAUUUAUAAUGGAUACCAGUGCUGUGGCCCGGCAUCCUGACAUGAGGAUCACCCAUGUGUACCCUUGGCAGCUGUUAUGGGUUU [XTheo B #20] | – | – | – | 20.7 | – | 28.3 | – | 19.3 |
| UUCAAAGGGAACGGUGCUGGUGACAGAGAUACCAGCGCGGUAACGCGCCCUUGGCAGCUCAGAACAUGAGGAUCACCCAUGUAAU [Exclusion Theophylline A GF23] | – | – | – | 15.9 | – | 20.7 | – | 15.4 |
| UUGGUACAUGAGGAUCACCCAUGUACUGAAGGAGCGGGACGAAUCUCAGGUAGGUCGCAGACAUGAGGAUCACCCAUGUAUGGCU [Exclusion Arginine A GF 17] | – | – | – | 10.2 | 12.7 | 14.6 | 13.1 | 12.3 |
| UUGUAUAUGCGAAGGAGCGGGAAAUAUAUAUAUAUAAUCCUAACAUGAGGAUCACCCAUGUCCCAGGUAGGUCGCGCAUAUAUGG [12.F] | – | – | – | 80.5 | 69.5 | 80.7 | 87.9 | 78.3 |
| UUGUUGUUUGGAAGGAGCGUGUAAGAUUAAGAACAUGAGGAUCACCCAUGUUGUAAGGUAGCACAGGUAGGUCGCCGGGUGGUGG [11.T] | – | – | – | 19.3 | 14.4 | 24.4 | 17.6 | 15.1 |
| UUUGAAAUAACAGAUACCAGCGUGUUAUAAAACAUGAGGAUCACCCAUGUAGUGAUCAAGCGCCCUUGGCAGCUGGUAUUUUAGG [7.F] | – | – | – | 118 | – | 208 | – | 172 |
